In article PMC10873205 (2024):

Target: UBE2A (UniProt P49459 1-152)
Test: ITC

B1: UBR4_(xtal) Ser4930Arg (domain or fragment)
chain: AIQHPGTQVLIGTDSIPNLHKLEQVSSDEGIGTLAENLLEALREHPDVNKKIDAARRETRAEKKRMAMAMRQKALGTLGMTTNEKGQVVTKTALLKQMEELIEEPGLTCCICREGYKFQPTKVLGIYTFTKRVALEEMENKPRKQQGYSTVSHFNIVHYDCHLAAVRLARGREEWESAALQNANTKCNGLLPVWGPHVPERAFATCLARHNTYLQECTGQREPTYQLNIHDIKLLFLRFAMEQSFSADTGGGGRESNIHLIPYIIHTVLYVLNTTRATSREEKNLQGFLEQPKEKWVESAFEVDGPYYFTVLALHILPPEQWRATRVEILRRLLVTSQARAVAPGGATRLTDKAVKDYSAYRSSLLFWALVDLIYNMFKKVPTSNTEGGWSCSLAEYIRHNDMPIYEAADKALKTFQEEFMPVETFSEFLDVAGLLSEITDPESFLKDLLNSVP
Kd: 1470 nM
